# Measured values as given in US20180064827.
# Columns and labels:
# Assay in all cases: cell_activity
# ZFN 69912 (synthetic) = settings: pair with 69909, 0.1 ug mRNA, MK2
# ZFN 69913 (synthetic) = settings: pair with 69909, 0.1 ug mRNA, MK2
# ZFN 60308 (synthetic) = settings: pair with 60309, K562
# ZFN 64869 (synthetic) = settings: pair with 64859, Hepa1-6
# ZFN 64866 (synthetic) = settings: pair with 64859, Hepa1-6
# ZFN 60417 (synthetic) = settings: pair with 64859, Hepa1-6
# ZFN 64971 (synthetic) = settings: pair with 64982, Hepa1-6
# ZFN 60460 (synthetic) = settings: pair with 64982, Hepa1-6
# ZFN 64969 (synthetic) = settings: pair with 64982, Hepa1-6
# ZFN 64982 (synthetic) = settings: pair with 64971, Hepa1-6; finger linker variant 64972 gave 89.0
# ZFN 60461 (synthetic) = settings: pair with 64971, Hepa1-6
# ZFN 64983 (synthetic) = settings: pair with 64971, Hepa1-6
# ZFN 65022 (synthetic) = settings: pair with 64989, Hepa1-6
# ZFN 65021 (synthetic) = settings: pair with 64989, Hepa1-6
# ZFN 60393 (synthetic) = settings: pair with 64989, Hepa1-6
# ZFN 64842 (synthetic) = settings: pair with 64793, Hepa1-6
# ZFN 60423 (synthetic) = settings: pair with 64793, Hepa1-6
# ZFN 64844 (synthetic) = settings: pair with 64793, Hepa1-6
# ZFN 60134 (synthetic) = settings: pair with 60133, K562
# ZFN 60259 (synthetic) = settings: pair with 60254, K562
# ZFN 65086 (synthetic) = settings: pair with 65094, Hepa1-6
# ZFN 58780 (synthetic) = settings: pair with 65094, Hepa1-6
# ZFN 65085 (synthetic) = settings: pair with 65098, Hepa1-6
# ZFN 67451 (synthetic) = settings: pair with 60502, HepG2, 40 ug/mL
# ZFN 64066 (synthetic) = settings: pair with 60502, HepG2, 40 ug/mL
# ZFN 60501 (synthetic) = settings: pair with 67458, HepG2, 40 ug/mL
# ZFN 60502 (synthetic) = settings: pair with 64066, HepG2, 40 ug/mL
# ZFN 67458 (synthetic) = settings: pair with 60501, HepG2, 40 ug/mL
# ZFN 64080 (synthetic) = settings: pair with 60501, HepG2, 40 ug/mL
# ZFN 65094 (synthetic) = settings: pair with 65086, Hepa1-6
# ZFN 65095 (synthetic) = settings: pair with 65086, Hepa1-6
# ZFN 65098 (synthetic) = settings: pair with 65086, Hepa1-6
# ZFN 58781 (synthetic) = settings: pair with 65086, Hepa1-6
# ZFN 64947 (synthetic) = settings: pair with 64952, Hepa1-6
# ZFN 64946 (synthetic) = settings: pair with 64951, Hepa1-6
# ZFN 60412 (synthetic) = settings: pair with 64951, Hepa1-6
# ZFN 64944 (synthetic) = settings: pair with 64952, Hepa1-6
# ZFN 60137 (synthetic) = settings: pair with 60334, K562
# ZFN 69929 (synthetic) = settings: pair with 69920, 0.1 ug mRNA, MK2
# ZFN 69928 (synthetic) = settings: pair with 69916, 0.1 ug mRNA, MK2
# ZFN 69925 (synthetic) = settings: pair with 69916, 0.1 ug mRNA, MK2
# ZFN 69926 (synthetic) = settings: pair with 69915, 0.1 ug mRNA, MK2
# ZFN 69922 (synthetic) = settings: pair with 69916, 0.1 ug mRNA, MK2
# ZFN 60045 (synthetic) = settings: pair with 60043, K562
# ZFN 64859 (synthetic) = settings: pair with 64869, Hepa1-6
# ZFN 60416 (synthetic) = settings: pair with 64866, Hepa1-6
# ZFN 64848 (synthetic) = settings: pair with 64866, Hepa1-6
sequence,measurement,setting,value
GTGGTGCTGAAGGAGGAGACCCACCGCT (double strand) [M. mulatta PCSK9 exon 2 right],activity,ZFN 69912 (synthetic),58.7 % indel
same,activity,ZFN 69913 (synthetic),53.4 % indel
TGCAGGCGGCGGGCAGTGCGCTCTGACT (double strand) [human PCSK9 60308 site],activity,ZFN 60308 (synthetic),71.8 % indel
CTGGTGCCATGCTGGGATAATTCGCTCC (double strand) [mouse PCSK9 site B right],activity,ZFN 64869 (synthetic),82.4 % indel
same,activity,ZFN 64866 (synthetic),79 % indel
same,activity,ZFN 60417 (synthetic),53 % indel
GTGGGACCTCACAGGCTGCTGCCCACGT (double strand) [mouse PCSK9 site F left],activity,ZFN 64971 (synthetic),95.9 % indel
same,activity,ZFN 60460 (synthetic),53.8 % indel
same,activity,ZFN 64969 (synthetic),86.1 % indel
GGGGTGGTGACTCACCGGCCACGTGGGC (double strand) [mouse PCSK9 site F right],activity,ZFN 64982 (synthetic),95.9 % indel
same,activity,ZFN 60461 (synthetic),85.8 % indel
same,activity,ZFN 64983 (synthetic),95.2 % indel
TCCTCCTGGGACGGGAGGGCGAGCATCA (double strand) [mouse PCSK9 site G right],activity,ZFN 65022 (synthetic),76.3 % indel
same,activity,ZFN 65021 (synthetic),83.3 % indel
same,activity,ZFN 60393 (synthetic),60.9 % indel
GGCACGCTGTTGAAGTCGGTGATGGTGA (double strand) [mouse PCSK9 site A right],activity,ZFN 64842 (synthetic),44.9 % indel
same,activity,ZFN 60423 (synthetic),35.8 % indel
same,activity,ZFN 64844 (synthetic),42.9 % indel
TTACCGGGGGGCTGGTATTCATCCGCCC (double strand) [human PCSK9 60134 site],activity,ZFN 60134 (synthetic),72.6 % indel
GAGGCTGGGGAGTAGAGGCAGGCATCGT (double strand) [human PCSK9 60259 site],activity,ZFN 60259 (synthetic),75.7 % indel
CTGGAGGCTGCCAGGAACCTACATTGTG (double strand) [mouse PCSK9 site J left],activity,ZFN 65086 (synthetic),77.8 % indel
same,activity,ZFN 58780 (synthetic),69.6 % indel
same,activity,ZFN 65085 (synthetic),73.5 % indel
GAGCAGACGATGAGAAGCCATCCTGCCA (double strand) [human TTR 60501 site],activity,ZFN 67451 (synthetic),36.6 % indel
same,activity,ZFN 64066 (synthetic),37.3 % indel
same,activity,ZFN 60501 (synthetic),47.6 % indel
CTGCCTTGCTGGACTGGTATTTGTGTCT (double strand) [human TTR 60502 site],activity,ZFN 60502 (synthetic),37.3 % indel
same,activity,ZFN 67458 (synthetic),47.6 % indel
same,activity,ZFN 64080 (synthetic),47 % indel
GTGGTGCTGATGGAGGAGACCCAGAGGC (double strand) [mouse PCSK9 site J right],activity,ZFN 65094 (synthetic),77.8 % indel
same,activity,ZFN 65095 (synthetic),76.7 % indel
same,activity,ZFN 65098 (synthetic),77.2 % indel
same,activity,ZFN 58781 (synthetic),62.3 % indel
GCTAAGTGCATGGCTGTCTGGTTCTGTA (double strand) [mouse PCSK9 site E left],activity,ZFN 64947 (synthetic),42 % indel
same,activity,ZFN 64946 (synthetic),51.3 % indel
same,activity,ZFN 60412 (synthetic),28.6 % indel
same,activity,ZFN 64944 (synthetic),49.1 % indel
AGATGGGGGTCTTACCGGGGGGCTGGTA (double strand) [human PCSK9 60137 site],activity,ZFN 60137 (synthetic),67.9 % indel
GGGGTGGTGACTTACCAGCCACGTGGGC (double strand) [M. mulatta PCSK9 exon 7 right],activity,ZFN 69929 (synthetic),43.3 % indel
same,activity,ZFN 69928 (synthetic),69.2 % indel
same,activity,ZFN 69925 (synthetic),77 % indel
same,activity,ZFN 69926 (synthetic),37 % indel
same,activity,ZFN 69922 (synthetic),81.4 % indel
TACGTGGTGGTGCTGAAGGAGGAGACCC (double strand) [human PCSK9 60045 site],activity,ZFN 60045 (synthetic),65.4 % indel
CAGAGCATCCCATGGAACCTGGAGCGAA (double strand) [mouse PCSK9 site B left],activity,ZFN 64859 (synthetic),82.4 % indel
same,activity,ZFN 60416 (synthetic),35.7 % indel
same,activity,ZFN 64848 (synthetic),73.6 % indel
